Target: HA-CDK1 (UniProt P06493 1-297)
Test: pull-down

Sequence of HA-CDK1 (P06493 whole entry): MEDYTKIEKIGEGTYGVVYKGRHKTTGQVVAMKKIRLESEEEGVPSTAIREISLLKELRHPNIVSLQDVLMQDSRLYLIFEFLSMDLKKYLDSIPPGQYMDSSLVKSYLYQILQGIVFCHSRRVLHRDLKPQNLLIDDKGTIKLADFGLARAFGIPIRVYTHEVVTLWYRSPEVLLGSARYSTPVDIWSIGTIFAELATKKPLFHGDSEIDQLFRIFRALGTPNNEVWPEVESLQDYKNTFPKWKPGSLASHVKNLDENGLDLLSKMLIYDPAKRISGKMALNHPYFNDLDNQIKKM

binding result: binds
B1: GST-USP7 210-500 (domain or fragment, UniProt Q93009 210-500, looked up)
chain: HTGYVGLKNQGATCYMNSLLQTLFFTNQLRKAVYMMPTEGDDSSKSVPLALQRVFYELQHSDKPVGTKKLTKSFGWETLDSFMQHDVQELCRVLLDNVENKMKGTCVEGTIPKLFRGKMVSYIQCKEVDYRSDRREDYYDIQLSIKGKKNIFESFVDYVAVEQLDGDNKYDAGEHGLQEAEKGVKFLTLPPVLHLQLMRFMYDPQTDQNIKINDRFEFPEQLPLDEFLQKTDPKDPANYILHAVLVHSGDNHGGHYVVYLNPKGDGKWCKFDDDVVSRCTKEEAIEHNYGG

— publication PMC11846418 (Cancer Cell International, 2025)
